Reference: patent publication US20250313626A1 (HARBOUR BIOMED SHANGHAI, published 2025)

T1: human CD200R1 isoform a on CHOK1 cells (CHOK1/hCD200R1a) (human, UniProt Q8TD46 25-348)
T1 construct: also called CHOK1/CD200R1a
T1 sequence: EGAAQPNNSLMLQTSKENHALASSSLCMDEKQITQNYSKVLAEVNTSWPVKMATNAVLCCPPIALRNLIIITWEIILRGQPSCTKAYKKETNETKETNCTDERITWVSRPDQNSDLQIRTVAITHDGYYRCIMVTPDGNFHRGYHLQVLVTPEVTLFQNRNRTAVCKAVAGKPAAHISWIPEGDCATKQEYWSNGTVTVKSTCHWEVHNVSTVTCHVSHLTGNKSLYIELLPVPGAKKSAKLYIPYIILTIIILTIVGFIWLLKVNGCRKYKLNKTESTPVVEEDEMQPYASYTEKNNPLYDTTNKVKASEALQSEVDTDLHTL

T2: Cynomolgus macaques CD200R1 isoform a on CHOK1 cells (CHOK1/cynoCD200R1a) (Cynomolgus macaques)
T2 chain: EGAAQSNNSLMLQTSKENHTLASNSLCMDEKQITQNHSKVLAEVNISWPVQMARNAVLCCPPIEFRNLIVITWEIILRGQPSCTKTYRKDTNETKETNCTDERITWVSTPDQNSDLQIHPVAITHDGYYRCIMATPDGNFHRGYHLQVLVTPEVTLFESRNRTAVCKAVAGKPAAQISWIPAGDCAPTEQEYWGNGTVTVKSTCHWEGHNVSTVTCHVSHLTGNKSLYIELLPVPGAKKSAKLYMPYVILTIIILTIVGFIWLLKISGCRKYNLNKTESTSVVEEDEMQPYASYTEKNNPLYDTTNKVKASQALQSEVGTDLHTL

T3: CD200R1a on PathHunter Jurkat CD200R1a signaling cells (Eurofins DiscoverX, 93-1136C19) (human, UniProt Q8TD46 25-348)
T3 sequence: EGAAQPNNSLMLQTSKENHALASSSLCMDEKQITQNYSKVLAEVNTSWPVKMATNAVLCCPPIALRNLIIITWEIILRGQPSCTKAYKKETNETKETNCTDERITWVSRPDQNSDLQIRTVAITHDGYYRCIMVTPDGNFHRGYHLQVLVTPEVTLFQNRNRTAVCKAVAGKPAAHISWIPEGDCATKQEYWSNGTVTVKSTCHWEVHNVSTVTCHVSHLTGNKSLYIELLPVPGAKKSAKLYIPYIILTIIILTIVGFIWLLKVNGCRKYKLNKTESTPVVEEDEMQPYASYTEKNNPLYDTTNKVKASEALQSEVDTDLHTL

T4: human CD200R1a protein (soluble recombinant) (human, UniProt Q8TD46 29-265)
T4 construct: Soluble protein used in BLI; also called human CD200R1 isoform a; not shown: His tag implied by capture on anti-Penta-HIS biosensors
T4 sequence: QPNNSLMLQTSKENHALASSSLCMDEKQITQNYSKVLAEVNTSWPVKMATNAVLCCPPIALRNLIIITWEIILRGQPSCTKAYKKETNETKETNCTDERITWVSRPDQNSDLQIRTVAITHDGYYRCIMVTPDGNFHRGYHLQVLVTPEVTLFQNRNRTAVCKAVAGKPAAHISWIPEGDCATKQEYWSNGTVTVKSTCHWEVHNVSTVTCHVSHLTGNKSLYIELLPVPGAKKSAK


Tests used:
[1] = target: T1, human CD200R1 isoform a on CHOK1 cells …; test: flow cytometry blocking assay: biotin-labelled human CD200 binding to CHOK1/hCD200R1a cells; y axis Inhibition %
Protocol: (§1) In brief, CHOK1/hCD200R1a cells were digested and resuspended in 2% BSA in PBS. […] The cells were placed at 4° C. and incubated for 1 hour in the dark. […] 100 μL/well of pre-cooled PBS containing 2% BSA was added to rinse the cells twice, centrifugation was performed at 500 g, 4° C. for 5 minutes, and the supernatant was discarded. Fluorescent secondary antibody (PE Streptavidin, BD, Cat #: 554061, 1:200) was added at 100 μL/well, and incubation was performed at 4° C. for 30 minutes in the dark. The cells were washed twice with 200 μL/well of pre-cooled PBS, and were centrifuged at 500 g, 4° C. for 5 minutes, and the supernatant was discarded. Finally, 200 μL/well of pre-cooled PBS was used to resuspend the cells, and the fluorescence signal values were read using ACEA Novocyte 3000 flow cytometer. IC50 values were calculated.

[2] = target: T1, human CD200R1 isoform a on CHOK1 cells …; test: flow cytometry blocking assay: antibody titrated against biotin-labelled human CD200 binding to CHOK1/hCD200R1a cells
Protocol: To study the activity of human anti-CD200R1 antibodies in blocking the binding of human CD200 to its receptor CD200R1a in vitro, CHOK1/hCD200R1a was used to perform cell-level human CD200/human CD200R1a binding and blocking experiments.
as §1

[3] = target: T1, human CD200R1 isoform a on CHOK1 cells …; test: flow cytometry blocking assay: antibody titrated against biotin-labelled human CD200 binding to CHOK1/hCD200R1a cells; head prints EC50 without unit, x axis Log [Ab] (nM), y axis Inhibition %
Protocol: as §1

[4] = target: T2, Cynomolgus macaques CD200R1 isoform a …; test: flow cytometry, CHOK1/cynoCD200R1a cells (APC-A Mean); table beside the curves
[5] = target: T3, CD200R1a on PathHunter Jurkat CD200R1a …; test: cell-based or functional assay
[6] = target: T4, human CD200R1a protein (soluble …); test: BLI in-tandem competition on His-captured human CD200R1a; row = 1st Ab (400 nM); competitor (2nd Ab) PR007223
Protocol: (§2) To determine if the anti-CD200R1 antibodies bind to human CD200R1a on different or approximate binding epitopes, epitope competition experiments for the anti-CD200R1 antibodies were performed by the ForteBlio Octet® RED96e platform. […] The in-tandem competition assay format was applied, and it contained two association steps. Firstly, the antigen-loaded biosensors bound to each antibody (i.e., First antibody, 1st Ab) at a saturating concentration of 400 nM for 300 seconds to reach equilibrium and then secondly bound to the competing antibodies (i.e., Second antibody, 2nd Ab) of 400 nM for 300 seconds. The second binding signals are recorded as the 100% signal of each antibody when the first antibodies are replaced by kinetic buffer. All the binding data were analyzed using ForteBlio Data Analysis 11.0 software. The inhibition rate was calculated by the following formula: […]

[7] = target: T4, human CD200R1a protein (soluble …); test: BLI in-tandem competition on His-captured human CD200R1a; row = 1st Ab (400 nM); competitor (2nd Ab) PR007973
Protocol: as §2

[8] = target: T4, human CD200R1a protein (soluble …); test: BLI in-tandem competition on His-captured human CD200R1a; row = 1st Ab (400 nM); competitor (2nd Ab) PR007221
Protocol: as §2

[9] = target: T4, human CD200R1a protein (soluble …); test: BLI in-tandem competition on His-captured human CD200R1a; row = 1st Ab (400 nM); competitor (2nd Ab) PR006207
Protocol: as §2

| Binder | Blocking(Max) [1] [%] | Blocking (Max %) [2] [%] | IC50 [2] [nM] | EC50 [3] [nM] | EC50 [4] [nM] | MFI (MAX) [4] | IC50 of the inhibition of CD200-induced PathHunter Jurkat CD200R1a luminescence (CHOK1/hCD200 cells as CD200 source); head without unit, x axis Log [Ab] (nM) [5] [nM] | Inhibition ratio (%) [6] [%] | Inhibition ratio (%) [7] [%] | Inhibition ratio (%) [8] [%] | Inhibition ratio (%) [9] [%] |
| --- | --- | --- | --- | --- | --- | --- | --- | --- | --- | --- | --- |
| PR002906 (antibody, V domains shown, also called recombinant IgG1 antibody of huDX182) VH: QVQLQESGPGLVKPSETLSLTCTVSGYTITSGYDWSWIRQPPGKGLEWIGYINYGGSTNYKPSLGSRVTISVDTSKNQFSLKLSSVTAADTAVYYCARYNEYKSYIYDWYFDFWGQGTLVTVSS VL: DIQMTQSPSSLSASVGDRVTITCKASKNIRSYLAWYQQKPGKAPKLLIYSGSTLHSGVPSRFSGSGSGTDFTLTISSLQPEDFATYYCQQHHEYPLTFGQGTKVEIKR | 95.4 | 98.3 | 1.58 | 0.479 | 21.4 | 26800 | – | – | – | – | – |
| PR005509 (antibody, human IgG1, kappa, L234A L235A, V domains shown) VH: QVQLVESGGGVVQPGRSLRLSCAASGFTFSSYGFHWVRQAPGKGLEWLGLIWSDGSNKYYADSVKGRFTISRDNSKNTLYLQMNSLRAEDTAVYYCARDRIVGAGFDYWGQGTLVTVSS VL: not shown | – | 102 | 0.485 | – | – | – | 2.47 | – | – | – | – |
| PR005474 (antibody, human IgG1, kappa, L234A L235A, V domains shown) VH: QVQLVESGGGVVQPGRSLRLSCAASAFTFSSYGMHWVRQAPGKGLEWVALIWNDGSNKFYADSVKGRFTISRDNSKNTLFLQMNSLRAEDTAVYYCARDRILGAGFDYWGQGTLVTVSS VL: not shown | – | 101 | 0.309 | – | – | – | 7.75 | – | – | – | – |
| PR007973 (antibody, human IgG1, kappa, V domains shown, PTM variant of PR006839 (human IgG1)) VH: QVQLVESGGGVVQPGRSLRLSCAASGFTFSSYGFHWVRQAPGKGLEWLGIIWSDASNKYYADSVKGRFTISRDNSKNTLYLQMNSLRAEDTAVYYCARDRIVGEGFDYWGQGTLVTVSS VL: not shown | – | – | – | – | – | – | – | 91.7 | 103 | 100 | -44.7 |
| PR006480 (antibody, human IgG1, kappa, L234A L235A, also called PR6480) heavy: not shown light: DIQMTQSPPSLSASVGDRVTITCRASQSISSYLNWFQQKAGKAPKLLISATSNLQSGVPSRFSGSGSGTDFTLTISSLQPEDLATYYCQQSYSSPYTFGQGTKVEIKRTVAAPSVFIFPPSDEQLKSGTASVVCLLNNFYPREAKVQWKVDNALQSGNSQESVTEQDSKDSTYSLSSTLTLSKADYEKHKVYACEVTHQGLSSPVTKSFNRGEC | 61 | 63.3 | 0.607 | 0.164 | 19.5 | 34600 | 4.55 | – | – | – | – |
| PR007221 (antibody, human IgG1, kappa, PTM variant of PR006895 (human IgG1)) heavy: not shown light: DIQLTQSPPSLSASVGDRVTITCRASQSISSYLNWFQQKAGKAPKLLISATSNLQSGVPSRFSGSGSGTDFTLTISSLQPEDLATYYCQQTLSSPYTFGQGTKVEIKRTVAAPSVFIFPPSDEQLKSGTASVVCLLNNFYPREAKVQWKVDNALQSGNSQESVTEQDSKDSTYSLSSTLTLSKADYEKHKVYACEVTHQGLSSPVTKSFNRGEC | 80.4 | – | – | 0.194 | 7.37 | 53300 | – | 89 | 95.6 | 100 | -40.7 |
| PR007223 (antibody, human IgG1, kappa, PTM variant of PR006895 (human IgG1)) heavy: not shown light: DIQLTQSPPSLSASVGDRVTITCRASQSISSYLNWFQQKAGKAPKLLISATSNLQSGVPSRFSGSGSGTDFTLTISSLQPEDLATYYCQQTYSSPYTFGQGTKVEIKRTVAAPSVFIFPPSDEQLKSGTASVVCLLNNFYPREAKVQWKVDNALQSGNSQESVTEQDSKDSTYSLSSTLTLSKADYEKHKVYACEVTHQGLSSPVTKSFNRGEC | 88 | – | – | 0.122 | 8.11 | 54200 | – | 91.8 | 99.6 | 101 | -50.2 |
